Measurements published in patent US20210340225A1.

Legend:
[1] = molecular target: prefusion stabilised SARS-CoV spike ectodomain trimer, residues 1-1160, two proline substitutions, T (SARS-CoV); assay: ELISA, 47D11 titrated on coated spike ectodomain
[2] = molecular target: prefusion stabilised SARS-CoV spike ectodomain trimer, residues 1-1160, two proline substitutions, T (SARS-CoV); assay: ELISA: spike ectodomain coated on the plate, 47D11 titrated, OD450nm

Substance: 47D11 fully human IgG1 monoclonal antibody
- EC50 (read off the curve) [1]: 0.2 nM
- EC50 (read off the curve) [2]: 0.2 nM
